The chains are these.
B1: Cytochrome c-551, P00099 (parent)
chain: MKPYALLSLLATGTLLAQGAWAEDPEVLFKNKGCVACHAIDTKMVGPAYKDVAAKFAGQAGAEAELAQRIKNGSQGVWGPIPMPPNAVSDDEAQTLAKWVLSQK

In this series the parent is B1. The following applies: Pseudomonas aeruginosa (strain ATCC 15692 / DSM 22644 / CIP 104116 / JCM 14847 / LMG 12228 / 1C / PRS 101 / PAO1); pH 7; 10 °C; GdnHCl; Fluorescence; sodium phosphate 50 mM; reversible: yes; structure 451C; whole UniProt chain shown.

The values below come from FireProtDB (doi:10.1110/ps.5101).

E92V: the “ddG of mutation (higher = less stable)” value came to 0.3 kcal/mol, the denaturant m value was 3.3 kcal/mol/M, the “denaturant midpoint (higher = more stable)” value amounted to 1.8 M and the unfolding free energy is 5.8 kcal/mol.

For E92Q, the “ddG of mutation (higher = less stable)” value was -0.2 kcal/mol, the denaturant m value worked out at 3.4 kcal/mol/M, the “denaturant midpoint (higher = more stable)” value came out at 1.8 M and the unfolding free energy was determined as 6.3 kcal/mol.
